Reference: patent publication US20060040325A1

Experiments:
[1] = target: FcγRIIIA (soluble receptor used as analyte in the BIAcore runs) (human) (UniProt P08637); assay: SPR (BIAcore 3000), IgG amine-coupled to CM5, soluble FcγRIIIA injected; Scatchard plot of Req; Run 1
[2] = target: FcγRIIB-streptavidin fusion protein (tetramer) (human; Streptomyces avidinii) (UniProt P31994); assay: ELISA: antibody at varied concentration captured on protein A/G, FcγRIIB-streptavidin, biotin-HRP, OD at 450 nm
Sequence of FcγRIIB-streptavidin fusion protein (tetramer) (human; Streptomyces avidinii) (P31994 43-217 limits assumed): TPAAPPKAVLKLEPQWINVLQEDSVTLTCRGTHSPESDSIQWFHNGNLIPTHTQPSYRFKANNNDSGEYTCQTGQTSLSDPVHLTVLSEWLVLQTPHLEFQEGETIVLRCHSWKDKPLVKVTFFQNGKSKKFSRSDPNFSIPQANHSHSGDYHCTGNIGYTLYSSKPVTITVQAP

[3] = target: FcγRIIIA (soluble receptor used as analyte in the BIAcore runs) (human) (UniProt P08637); assay: SPR (BIAcore 3000), IgG amine-coupled to CM5, soluble FcγRIIIA injected; steady-state isotherm; Run 2
[4] = target: FcγRIIIA (soluble receptor used as analyte in the BIAcore runs) (human) (UniProt P08637); assay: SPR (BIAcore 3000), IgG amine-coupled to CM5, soluble FcγRIIIA injected; steady-state isotherm; Run 1
[5] = target: FcγRIIIA (soluble receptor used as analyte in the BIAcore runs) (human) (UniProt P08637); assay: SPR (BIAcore 3000), IgG amine-coupled to CM5, soluble FcγRIIIA injected; Scatchard plot of Req; Run 2

Sequence of FcγRIIIA (soluble receptor used as analyte in the BIAcore runs) (human) (P08637 17-208): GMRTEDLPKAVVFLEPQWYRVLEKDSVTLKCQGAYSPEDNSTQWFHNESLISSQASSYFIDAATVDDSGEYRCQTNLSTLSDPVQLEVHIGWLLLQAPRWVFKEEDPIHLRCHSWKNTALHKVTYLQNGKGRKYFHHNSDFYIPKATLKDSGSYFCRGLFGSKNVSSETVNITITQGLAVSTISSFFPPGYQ

Kd [1] [nM]	EC50 (read off the curve) [2] [ng/mL]	Kd [3] [nM]	Kd [4] [nM]	Kd [5] [µM]	Substance
3260	300	8900	3470	7.6	Vitaxin® (wild type, full length IgG1) (antibody)
458	300	1280	458	1.22	Vitaxin®-1M (Vitaxin® Fc variant I332E, IgG1) (antibody)
–	–	114	–	–	Vitaxin®-3M (Vitaxin® Fc variant S239D/A330L/I332E, IgG1) (antibody)
